B1: JML-1 Fab (Fab, V domains shown)
VH: KVQLLESGGGLVQPGRSLRLSCAASGFTFDDYGMHWVRQAPGKGLEWVSGISWNSGSIGYADSVKGRFTISRDNSKNTLYLQMNSLRAEDTAVYYCARGGQTIDIWGQGTMVTVSS
VL: not shown
B2: JML-1 IgG1 (antibody, V domains shown)
VH: KVQLLESGGGLVQPGRSLRLSCAASGFTFDDYGMHWVRQAPGKGLEWVSGISWNSGSIGYADSVKGRFTISRDNSKNTLYLQMNSLRAEDTAVYYCARGGQTIDIWGQGTMVTVSS
VL: not shown

Experiments:
[1] = target: human Siglec-6-Fc (Homo sapiens, UniProt O43699); assay: SPR
[2] = target: human Siglec-8-Fc (Homo sapiens, UniProt Q9NYZ4); assay: ELISA
[3] = target: human CD33-Fc (Homo sapiens, UniProt P20138); assay: ELISA
[4] = target: human CD22-Fc (Homo sapiens, UniProt P20273); assay: ELISA
human CD22-Fc, sequence (P20273 20-687): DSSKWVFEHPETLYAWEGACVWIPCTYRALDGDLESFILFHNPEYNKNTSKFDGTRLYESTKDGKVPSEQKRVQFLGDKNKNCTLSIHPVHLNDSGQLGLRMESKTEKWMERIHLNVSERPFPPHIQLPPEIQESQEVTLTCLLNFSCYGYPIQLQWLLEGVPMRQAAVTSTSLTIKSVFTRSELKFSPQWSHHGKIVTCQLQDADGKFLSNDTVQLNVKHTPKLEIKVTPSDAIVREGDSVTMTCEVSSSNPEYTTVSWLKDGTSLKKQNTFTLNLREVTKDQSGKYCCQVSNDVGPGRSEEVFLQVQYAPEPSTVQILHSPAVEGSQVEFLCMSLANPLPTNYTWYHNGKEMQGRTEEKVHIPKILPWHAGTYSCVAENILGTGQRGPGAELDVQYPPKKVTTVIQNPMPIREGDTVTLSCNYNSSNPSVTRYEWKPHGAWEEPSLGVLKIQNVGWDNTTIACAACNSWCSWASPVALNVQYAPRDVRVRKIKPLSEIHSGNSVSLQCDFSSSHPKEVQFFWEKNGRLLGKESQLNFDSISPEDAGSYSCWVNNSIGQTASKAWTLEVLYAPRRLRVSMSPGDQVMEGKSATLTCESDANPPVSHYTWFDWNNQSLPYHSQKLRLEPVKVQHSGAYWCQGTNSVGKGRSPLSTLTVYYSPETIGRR

human CD33-Fc, sequence (P20138 18-259): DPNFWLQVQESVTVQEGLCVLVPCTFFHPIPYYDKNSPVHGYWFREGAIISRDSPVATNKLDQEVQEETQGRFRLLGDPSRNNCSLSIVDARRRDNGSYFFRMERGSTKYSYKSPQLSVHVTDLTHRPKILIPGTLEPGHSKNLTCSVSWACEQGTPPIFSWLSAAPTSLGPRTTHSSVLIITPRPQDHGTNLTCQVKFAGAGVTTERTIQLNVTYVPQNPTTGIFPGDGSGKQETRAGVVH
human Siglec-6-Fc, sequence (O43699 27-347): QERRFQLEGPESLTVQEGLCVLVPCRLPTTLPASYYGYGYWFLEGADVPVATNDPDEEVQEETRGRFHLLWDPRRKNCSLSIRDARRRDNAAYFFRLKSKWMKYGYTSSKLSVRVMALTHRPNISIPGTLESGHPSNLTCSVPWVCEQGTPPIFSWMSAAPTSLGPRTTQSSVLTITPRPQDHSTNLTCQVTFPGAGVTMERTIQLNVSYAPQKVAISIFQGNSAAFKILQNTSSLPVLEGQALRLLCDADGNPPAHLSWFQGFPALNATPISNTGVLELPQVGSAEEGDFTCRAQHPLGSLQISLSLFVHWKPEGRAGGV
human Siglec-8-Fc, sequence (Q9NYZ4 17-363): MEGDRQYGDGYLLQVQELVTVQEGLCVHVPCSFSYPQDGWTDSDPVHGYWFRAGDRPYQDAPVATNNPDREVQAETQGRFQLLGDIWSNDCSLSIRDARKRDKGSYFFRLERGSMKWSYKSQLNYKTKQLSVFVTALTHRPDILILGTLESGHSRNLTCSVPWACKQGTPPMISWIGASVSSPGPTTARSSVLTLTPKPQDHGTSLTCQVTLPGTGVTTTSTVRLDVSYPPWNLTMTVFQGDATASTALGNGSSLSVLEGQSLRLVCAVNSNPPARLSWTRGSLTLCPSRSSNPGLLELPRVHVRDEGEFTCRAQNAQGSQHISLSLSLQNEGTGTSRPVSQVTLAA

| Binder | Kd [1] | binding result [2] | binding result [3] | binding result [4] |
| --- | --- | --- | --- | --- |
| B1 | 2.8 nM | – | – | – |
| B2 | – | no binding (tested: 1 μg/mL) | no binding (tested: 1 μg/mL) | no binding (tested: 1 μg/mL) |
